± gives the uncertainty stated by the source.

The text below walks through data of the supplement of paper PMC12042874.

The nature of this series: amyloid nucleation score (Sup35N fusion, yeast selection) (log enrichment); library NNK2; higher = more nucleation; inactive = no reads after selection. In outline: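 The nucleation score is a DiMSum log enrichment of output over input reads, centred on the mode score of non-aggregating sequences. Sequences under 100 input reads were excluded, and reads came from Illumina sequencing of plasmid inserts. Psi-negative yeast expressing Sup35N fused to peptides of 20 random codons were induced with 100 μM copper sulfate for 24 hours and grown 7 days at 30°C on medium lacking adenine and uracil. Random libraries had three technical output replicates.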

Take FRKGNIMELFALCCMISYCF: the amyloid nucleation score is -0.682 ± 0.49.

In the case of SRHGMSLASR, the amyloid nucleation score is -0.024 ± 0.46.

In turn, CNGRVKAYVSQNYVSEYGVL displayed an amyloid nucleation score of -0.1 ± 0.2.

For MYKGA, the amyloid nucleation score stood at 0.595 ± 0.62.

Take KTFMCSFSQHVKGSGVFLTS: the amyloid nucleation score is -0.346 ± 0.49.

As to HNIIWFSLTWLRYMSVVVIC, the amyloid nucleation score result is “inactive”.

RNRSKQDQWRNELSAGLHGV came in with an amyloid nucleation score of -0.359 ± 0.45.

Consider SSSNLG, for which the amyloid nucleation score result is “inactive”.

In turn, VRMMCLQGATTGATNSPSNR yielded an amyloid nucleation score of -0.526 ± 0.37.

As to VRLLLYWVAVRWRETDCCCS, the amyloid nucleation score was 0.315 ± 0.48.

The substance PFNQDMLTIQIGTSIISRSS returned an amyloid nucleation score of -0.172 ± 1.1.

In the case of VYAFLYFWGFRHGVVYV, the amyloid nucleation score was -0.099 ± 0.44.

Turning to LITFLCFYHLKHYGLHTVGW, the amyloid nucleation score is -1.03 ± 0.36.

The substance WWHAAFFVAAFPNA had an amyloid nucleation score of 2.19 ± 0.17.

FIVYKVPFRV yielded an amyloid nucleation score of -0.934 ± 0.78.

Substance SACWEGGSSFVIKGKTRLFG registered an amyloid nucleation score of 1.94 ± 0.19.

With FMTKTPLYVKSYSFWFDLVM, the amyloid nucleation score worked out at 1.57 ± 0.36.

In the case of RFCFVTIYSHRGVYANRMGM, the amyloid nucleation score was 4.31 ± 0.075.

For the substance LQASDKGKLLRTIPLRHYVP, the amyloid nucleation score amounted to 1.02 ± 0.33.

In the case of SNCVCSRIVCCVRMGTGL, the amyloid nucleation score is 9.908 ± 0.042.

In turn, CLTTGNLWEVTAGIESVRWI registered an amyloid nucleation score of 0.202 ± 0.5.

On to SAATPCVY, for which the amyloid nucleation score was 0.778 ± 0.25.

In the case of YQARVTMCIPAWTMSECSQC, the amyloid nucleation score was -1.01 ± 0.76.

ACNSTFNRIEVYARVMKDTS had an amyloid nucleation score of 3.96 ± 0.094.

Substance SWCCGCFLLCVPRTVSSFVR displayed an amyloid nucleation score of 0.167 ± 0.39.

With PCGSCPRLQQIVSRDGDDAG, the amyloid nucleation score worked out at 2.71 ± 0.21.

The substance HSFMSRVARVSWMEMVVTLA had an amyloid nucleation score of 1.26 ± 0.41.

GIWITGAWTTSLLCIRTLLG had an amyloid nucleation score of 0.631 ± 0.43.

DLAPLLR came in with an amyloid nucleation score of 0.132 ± 0.56.

In turn, RLSCFMNRGVREDSDSN returned an amyloid nucleation score of -0.766 ± 0.61.

The substance GVVTFV showed an amyloid nucleation score of 0.157 ± 0.76.

In turn, WLSDRASCYRESRCVEQ came in with an amyloid nucleation score of -0.742 ± 0.42.

As to VNLFVLDSRTNGVCFWELMT, the amyloid nucleation score is -0.452 ± 0.55.

The substance YSSKFSYGMMCTRWDIVQYK yielded an amyloid nucleation score of -0.451 ± 0.76.

MFCIWRE: the amyloid nucleation score amounted to 0.907 ± 0.2.

In the case of MYYYSFSDTTLWEISPQLAT, the amyloid nucleation score is -0.582 ± 1.1.

LNNGCCMSLPVPTRPDDRDK had an amyloid nucleation score of 0.356 ± 0.8.

Substance IHGFNLSIRKMQKDGSDGQH showed an amyloid nucleation score of 0.635 ± 0.65.

With GVSHMALSSARSFMITDLRS, the amyloid nucleation score amounted to 3.44 ± 0.14.

As to NWCYTTSGHHRVTFGLQRLP, the amyloid nucleation score came out at 4.8 ± 0.052.

Substance TMKHPDMS returned an amyloid nucleation score of -0.152 ± 0.55.

WPFRESVY returned an amyloid nucleation score of 0.41 ± 0.5.

As for HDYVRLPEWFLSMGDHMYMC, the amyloid nucleation score is -0.356 ± 1.1.

LSCCYDDHRLQGRCGSGRFH had an amyloid nucleation score of 0.946 ± 0.27.

Substance SQFSPNDLLLGSWKSDCPWR yielded an amyloid nucleation score of -0.917 ± 0.54.

Turning to WDSFLRLDFSMLSVLRREPR, the amyloid nucleation score came to 2.98 ± 0.18.

Regarding PYYCMSYLAPWCPDELRAS, the amyloid nucleation score entry is “inactive”.

As to LPWLWQLTFPFWA, the amyloid nucleation score came to 0.582 ± 0.37.

For YLGNLSPQRLRCFISLWIVQ, the amyloid nucleation score is -1.49 ± 1.1.

VFLKQVEPEGGQYETFLVVV had an amyloid nucleation score of -0.19 ± 1.1.

As to HFCYKMRLKDDCVCFKGYTI, the amyloid nucleation score amounted to 4.03 ± 0.058.

The substance IFYRYFSVFNCPAICRQYRK came in with an amyloid nucleation score of 6.382 ± 0.054.

In turn, KLYWGNWWCRGSLVDTI displayed an amyloid nucleation score of 0.695 ± 0.66.

Consider GLLEVIF, for which the amyloid nucleation score turned out to be 0.119 ± 0.74.

SELIGFLGGNQIELA registered an amyloid nucleation score of 0.027 ± 0.34.

RLLAIRIVILYSINCVLSLW had an amyloid nucleation score of 0.129 ± 0.42.

In turn, WSSKGVCYEVLCRFKVLQ showed an amyloid nucleation score of 2.99 ± 0.084.

For ISIAGCFNTKILWMFEQ, the amyloid nucleation score amounted to 6.32 ± 0.087.

The substance LYVQLQMEVVGPGVRLTGSL yielded an amyloid nucleation score of 3.19 ± 0.077.

HFCYSNNRWVSGAFYVSRPT: the amyloid nucleation score came out at 1.78 ± 0.2.

For LNCFYEPTSGSKLYTLRPAF, the amyloid nucleation score was -0.107 ± 1.

In turn, AVLCWLCLLGGLNINFEECG gave an amyloid nucleation score of 4.11 ± 0.045.

The substance QLHLTEVLFQS gave an amyloid nucleation score of 0.154 ± 0.22.

As for IDYQSGMPWVSMRMILKQ, the amyloid nucleation score worked out at 0.158 ± 0.46.

AYSVRLDLSCDQRCSF showed an amyloid nucleation score of 4.366 ± 0.041.

Regarding NRYVEVCPFLMGTVVGLWLR, the amyloid nucleation score turned out to be 0.851 ± 0.8.

Substance SETNMVHPYAIYLKVRYANN gave an amyloid nucleation score of 0.566 ± 0.24.

LGAGTSWAWLNLTYSEGTYK registered an amyloid nucleation score of 0.27 ± 0.8.

FMLRICPGYAKGRCISWHSR yielded an amyloid nucleation score of 0.396 ± 0.46.

For FFHKDPLLQNRIVLHMQVPA, the amyloid nucleation score entry was “inactive”.

In turn, FNRPAQNGLAKYWYWIQ yielded an amyloid nucleation score of 0.142 ± 0.42.

The substance YSIVNTNAGMTTRAWVTPTW yielded an amyloid nucleation score of 1.38 ± 0.21.

In the case of MCTSGGISG, the amyloid nucleation score was determined as 0.346 ± 0.5.

Take DCHRNGSFRGKDGDVLYRSS: the amyloid nucleation score was -0.397 ± 0.78.

Turning to CMVRLKPDFITALRLSLRGR, the amyloid nucleation score entry was “inactive”.

The substance DLYVLSWLYLGGEPNCVRF showed an amyloid nucleation score of 0.446 ± 0.26.

DIYLLKIDRSGKCWPTTVDL: the amyloid nucleation score was -0.067 ± 0.41.

ACVNYYNSEATIVVRKGRMG gave an amyloid nucleation score of 4.19 ± 0.071.

In the case of YRLGLCGTFHINCVLINRDG, the amyloid nucleation score stood at 5.2 ± 0.056.

In the case of GCDEEDCCCLRFRGC, the amyloid nucleation score amounted to 6.513 ± 0.031.

As for DVSGLNIVERGYKRCTGGND, the amyloid nucleation score is -0.054 ± 0.62.

WTKEAKIYSCFCSHF displayed an amyloid nucleation score of 8.663 ± 0.08.

Take TQSNALPVGPYSFTFFGRGY: the amyloid nucleation score worked out at 0.54 ± 0.8.

For the substance RHSKFRVITENMIDPFQRS, the amyloid nucleation score was 0.249 ± 0.64.

DFFRRFI registered an amyloid nucleation score of -0.742 ± 0.48.

As for RAMLNLKE, the amyloid nucleation score is 2.46 ± 0.053.

Take RTHWELRKNLLCPFVDKIY: the amyloid nucleation score is -1.2 ± 0.78.

Substance TLFNMMIYSL yielded an amyloid nucleation score of 1.09 ± 0.54.

The substance FWPSQNYRHFLTHRGRRRRS displayed an amyloid nucleation score of 0.552 ± 0.66.

In the case of IVTLVSDAYSKLTRLMNSVS, the amyloid nucleation score was -0.561 ± 0.23.

Take ARFSVILNSIYRFSYLCRRL: the amyloid nucleation score entry is “inactive”.

Substance CSGHNRYYPRRGMDQHMLVF gave an amyloid nucleation score of 0.266 ± 0.2.

In turn, SYVGMFRTLDVKLRLNKCGY yielded an amyloid nucleation score of -0.038 ± 1.1.

NEHMIHIKSDLRYSAESKPY gave an amyloid nucleation score of 0.503 ± 0.18.

As for YIFFSEKISTMSYSDKLRMA, the amyloid nucleation score was determined as 5.89 ± 0.083.

Regarding NGMRIGTDLGFYSRGMLRTQ, the amyloid nucleation score is 0.162 ± 0.26.

The substance QLFHAWTTWPSGDHNIAWRY displayed an amyloid nucleation score of 3.3 ± 0.14.

As to GLRFC, the amyloid nucleation score result was “inactive”.

YSFSRTYVLIIDGVS displayed an amyloid nucleation score of 1.27 ± 0.18.

Take CIRMNRISLGNSICWCAPNM: the amyloid nucleation score is 7.922 ± 0.047.

In the case of RGRCPCEVFNGSYVFVTHGD, the amyloid nucleation score result is “inactive”.

Regarding PDSYGNFHHSSYNHDHNLVH, the amyloid nucleation score result is “inactive”.

As to MLCVIHE, the amyloid nucleation score is 0.675 ± 0.25.

For GNLSVTAILWLMRYECLNLS, the amyloid nucleation score is -0.431 ± 0.64.

In the case of SALPDSTNRIASVGGISPGS, the amyloid nucleation score came out at 0.489 ± 0.46.

For the substance YCANDVVMLSA, the amyloid nucleation score is 1.06 ± 0.17.

As for KVSAPHCRLGFWCILC, the amyloid nucleation score result is “inactive”.

Substance ESYRPPVKTFGLGIRMGLFV displayed an amyloid nucleation score of -0.975 ± 1.1.

Substance VICRGVHSHSLGWGSCITCS displayed an amyloid nucleation score of -0.98 ± 0.48.

For the substance LYCILPLRL, the amyloid nucleation score result was “inactive”.

The substance VVNLIVKDDPWEGWLKSLVW had an amyloid nucleation score of 2.46 ± 0.18.

For YYSAHAKSAGLM, the amyloid nucleation score turned out to be 1.2 ± 0.48.

CTNMREFKGSLKAHIVLVVV came in with an amyloid nucleation score of -0.479 ± 0.32.

CANYSDARITFTYNSYKICV showed an amyloid nucleation score of 1.09 ± 0.2.

In turn, IFFLMNPR displayed an amyloid nucleation score of 2.16 ± 0.068.

With GWNGNLSGTAHLGSSIVSSG, the amyloid nucleation score was -0.649 ± 0.79.

FYCIFNFDIFV: the amyloid nucleation score stood at 6.286 ± 0.052.

The substance WGCHRLEATVLLCVRVCIDC had an amyloid nucleation score of -0.263 ± 1.1.

In the case of RIRVIIVPALVLA, the amyloid nucleation score result was “inactive”.

In turn, NEVTRAWSEFPYFMVSRHMT registered an amyloid nucleation score of 0.813 ± 0.47.

Regarding MNIDLHTHPSRSKMLCTTAN, the amyloid nucleation score is 0.914 ± 0.55.

WEGLSGTSLVLSQCFAPFSS: the amyloid nucleation score amounted to 2.17 ± 0.12.

In the case of MFLVSFRCVSYSAWYLTYMQ, the amyloid nucleation score is -0.338 ± 0.63.

For the substance VLGKFVEPGMAGLSVTPFRM, the amyloid nucleation score was 0.829 ± 0.57.

Take YYYDYVCLLWDLEEVSRHAL: the amyloid nucleation score was -0.442 ± 1.

Substance VSPLALDQVTVSMVAMGIEG displayed an amyloid nucleation score of 0.999 ± 0.29.

For ITYYHCVSHARNTKNQLTDF, the amyloid nucleation score entry was “inactive”.

For the substance LYLTWCKTLSDNLAL, the amyloid nucleation score was -1.15 ± 0.76.

Substance KIMYVSQECSGADLLGLYFF showed an amyloid nucleation score of -0.747 ± 0.79.

As for TCYTKPLNEYYE, the amyloid nucleation score was 0.011 ± 0.56.

Substance FMYGTDSFGL displayed an amyloid nucleation score of -1.08 ± 0.78.

SSYLPLQSTAIGHHSSRYGL came in with an amyloid nucleation score of 1.08 ± 0.34.

VMRVT had an amyloid nucleation score of 5.22 ± 0.081.

WFFTSS yielded an amyloid nucleation score of -0.526 ± 0.76.

RSSCRRNSYLRQLVMSLVRY yielded an amyloid nucleation score of -0.105 ± 1.1.

The substance KELRQSVVIM gave an amyloid nucleation score of 0.644 ± 0.35.

The substance SNQMWLMVCRVE had an amyloid nucleation score of 0.112 ± 0.19.

As to FFFMSDLYKSLSSAYDLGSI, the amyloid nucleation score result is “inactive”.
